Experimental data as given in patent US10758613B2, “Combination therapies using anti-metabolites and agents that target tumor-associated stroma or tumor cells” (BIOMED VALLEY DISCOVERIES, INC., priority 2014, dated 2020).
Numbering of substitutions follows the chain as printed. Names and notes keep the numbering of the source. Each block holds one molecule with its values, some of them ahead of it. Where a SMILES comes first, the peptide text is derived from it. [ ]: non-standard residue; d: D form. The star is where a group is joined. Dolaproine = CO[C@@H]([C@@H]1CCCN1)[C@@H](C)C(=O)O; Dil = CC[C@H](C)[C@H](NC)[C@@H](CC(=O)O)OC; X1 = C[C@@H](N*)[C@@H](O)c1ccccc1; NMeV = CN[C@H](C(=O)O)C(C)C

Assays:
[1] = tested on: H460 human non-small cell lung carcinoma xenograft; test: M830 alone and with gemcitabine, cisplatin or radiation in H460 human non-small cell lung carcinoma xenograft model; type: in vivo, nude mice; conditions: 58-day study, survival (TTE), logrank
From the text: (§1) The statistical tests were not adjusted for multiple comparisons.
Treatment began on Day 1 in eight groups of nude mice (n=10) with established subcutaneous H460 tumors of 75-126 mm^3. […] The study endpoint was a tumor volume of 2000 mm^3 or the final day, Day 58, whichever came first. […] The median TTE for controls was 15.6 days, establishing a maximum possible TGD of 42.4 days (272%) for the 58-day study.

[2] = tested on: OVCAR3 ovarian cancer model; test: M825 and M825-MMAE in OVCAR3 ovarian cancer model; type: in vivo, mice; conditions: free MMAE at 0.2 mg/kg, equivalent to maximum MMAE in the 10 mg/kg ADC group
Experimental: Treatment initiated when tumor volume reached approximately 120 mm^3. M825 was given i.v. at 10 mg/kg and M825-MMAE was given i.v. at 1, 3, or 10 mg/kg, 2 times per week for 3.5 weeks. […] The 10 mg/kg ADC group was redosed on Day 56, 2 times per week.

[3] = biological target: hTEM8-AP; test: Biocore affinity measurements of anti-TEM8 Fabs, hTEM8-AP; type: binding, human; conditions: Fab
[4] = Pharmacokinetics of TEM8 antibodies in mouse, single dose; type: in vivo
From the text: (§2) Tables 8 and 9 show pharmacokinetic properties of TEM8 antibodies according to the present invention in mouse for single dose (Table 8) and multiple dose (Table 9) treatments.

[5] = Pharmacokinetics of TEM8 antibodies in mouse, multiple dose; type: in vivo
From the text: as §2

[6] = tested on: 3T3 fibroblasts; test: Contractility of 3T3 fibroblasts in the presence of TGFb-1; type: cell-based
Experimental: 3T3 cells were cultured and contractility in the presence of TGFb-1 was measured in control or M825 exposed cells. […] Contractile forces are thought to contribute to increased cancer cell invasion.

[7] = tested on: UACC melanoma cells; test: TEM8 antibody efficacy in UACC melanoma model; type: in vivo, mice; conditions: 15 mg/kg, 3 times per week for 3-4 weeks; treatment initiated at 50 mm^3
Experimental: UACC melanoma cells were cultured and injected subcutaneously into mice. Treatment was initiated with a tumor volume of 50 mm^3, and treatment groups consisted of one of four TEM8 antibodies (M825, M830, M863, and M822), each dosed at 15 mg/kg, 3 times per week for 3-4 weeks.

[8] = tested on: H460 non-small cell lung carcinoma xenograft; test: M830 alone and with bevacizumab or paclitaxel in the H460 non-small cell lung carcinoma xenograft model; type: in vivo, athymic nude mice; conditions: combination partner Paclitaxel
Experimental: Animals were monitored for regression responses.
as §1
Cultured H460 cells were harvested during exponential growth and resuspended in phosphate buffered saline at a concentration of 1×10^8 cells/mL. 1.0×10^7 tumor cells were injected subcutaneously into the flank of athymic nude mice. Animals were euthanized when tumors reached the pre-determined volume endpoint of 2000 mm^3 or on the final day (Day 88), whichever came first. […] Each treatment produced a significant survival difference versus controls (P<0.01). The median TTE for controls was 22.8 days, establishing a maximum possible TGD of 65.2 days (286%) for the 88-day study.

[9] = biological target: FcγRIIIa (CD16a) (Homo sapiens, UniProt P08637); test: Binding of M830 Fc mutant to FcγRIIIa (ADCC); conditions: Fc mutant form compared with M830
From the text: Fc mutations which increase ADCC are known in the art. For example, substitutions in the IgG constant region such as S239D, A330L, and I332E are known to increase binding to the FCy receptor. (see, e.g., Lazar et al., Proc. Natl., Acad. Sci. U.S.A., 103:4005-4010, 2006). In the present example, the M830 Fc S239D:I332E double mutant was generated and confirmed by standard molecular biology techniques (830M: S239D/I332E).

hTEM8-AP, sequence (Q9H6X2 33-321): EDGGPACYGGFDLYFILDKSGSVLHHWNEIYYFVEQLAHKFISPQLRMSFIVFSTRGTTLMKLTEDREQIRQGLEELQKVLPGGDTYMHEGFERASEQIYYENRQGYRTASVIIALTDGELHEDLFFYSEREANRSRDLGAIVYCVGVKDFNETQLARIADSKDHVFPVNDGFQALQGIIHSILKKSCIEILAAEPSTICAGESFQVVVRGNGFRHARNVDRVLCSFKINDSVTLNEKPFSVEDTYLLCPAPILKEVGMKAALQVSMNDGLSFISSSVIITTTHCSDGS
FcγRIIIa (CD16a), sequence (P08637 17-254): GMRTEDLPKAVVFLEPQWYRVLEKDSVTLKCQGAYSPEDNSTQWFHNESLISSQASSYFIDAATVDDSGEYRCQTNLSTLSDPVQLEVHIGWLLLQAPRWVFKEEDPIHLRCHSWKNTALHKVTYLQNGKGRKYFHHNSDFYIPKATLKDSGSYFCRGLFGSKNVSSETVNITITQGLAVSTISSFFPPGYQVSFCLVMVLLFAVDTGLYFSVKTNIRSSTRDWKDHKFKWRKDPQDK

Molecule: N.N.[Cl][Pt][Cl] [Cisplatin, cisplatin]
outcome compared to vehicle-treated controls [1]: statistically significant survival benefit

Molecule: CC[C@H](C)[C@@H]([C@@H](CC(=O)N1CCC[C@H]1[C@H](OC)[C@@H](C)C(=O)N[C@H](C)[C@@H](O)c1ccccc1)OC)N(C)C(=O)[C@@H](NC(=O)[C@@H](NC)C(C)C)C(C)C [MMAE, reference compound] (H-[NMeV]V[Dil][Dolaproine]-X1)
effect in OVCAR3 model [2]: No effect

Molecule: Nc1ccn([C@@H]2O[C@H](CO)[C@@H](O)C2(F)F)c(=O)n1 [gemcitabine]
outcome compared to vehicle-treated controls [1]: not statistically different from vehicle-treated controls

Kd [3]: 59.1 pM
Molecule: M825: TEM8 monoclonal antibody (hIgG1); VH SEQ ID NO:1, VL SEQ ID NO:2 [Antibody M825]
AUCI ([4]; 5 mg/kg): 1310.519 µg·h/mL | AUCT ([4]; 5 mg/kg): 1310.222 µg·h/mL | AUCI ([4]; 15 mg/kg): 9239.202 µg·h/mL | AUCT ([4]; 15 mg/kg): 8991.767 µg·h/mL | AUCI ([5]; 5 mg/kg): 1408.345 µg·h/mL | AUCT ([5]; 5 mg/kg): 1408.201 µg·h/mL | AUCI ([5]; 15 mg/kg): 21649.446 µg·h/mL | AUCT ([5]; 15 mg/kg): 21648.879 µg·h/mL | contractility of activated 3T3 fibroblasts in vitro [6]: block the contractility

Kd [3]: 1570 pM
B1: M830: TEM8 monoclonal antibody (hIgG1); VH SEQ ID NO:5, VL SEQ ID NO:6 (antibody, V domains shown)
VH: EVQLVESGGGVVQPGRSVRLSCAASGFTFSTYTMHWVRQAPGKGLEWVAIISNDGSNKYYADPVRGRFTISRDNSKNTLYLQMNSLRAEDTAVYYCVRGSSWYRGNWFDPWGQGTLVTVSS
VL: DIQMTQSPSSLSASVGDRVTIACRASQTISRYLNWYQQKPGKAPKLLIYAASSLQSGVSSRFSGSGSGTEFTLTISSLQPEDFATYFCQQTYSPPITFGQGTRLEIKR
modifications: TEM830 mAb VH; TEM830 mAb VL
tumor growth in the UACC melanoma model [7]: effective at slowing tumor growth | regression (with % Tumor Reduction vs. Vehicle at Day 21) [8]: −61% | outcome compared to vehicle-treated controls [1]: not statistically different from vehicle-treated controls | AUCI ([4]; 5 mg/kg): 2242.485 µg·h/mL | AUCT ([4]; 5 mg/kg): 2242.286 µg·h/mL | AUCI ([4]; 15 mg/kg): 10692.742 µg·h/mL | AUCT ([4]; 15 mg/kg): 10692.598 µg·h/mL | AUCI ([5]; 5 mg/kg): 4316.79 µg·h/mL | AUCT ([5]; 5 mg/kg): 4315.918 µg·h/mL | AUCI ([5]; 15 mg/kg): 23053.875 µg·h/mL | AUCT ([5]; 15 mg/kg): 23052.853 µg·h/mL

binding to FcγRIIIa (CD16a) [9]: significantly enhanced binding
B2: M830 Fc S239D:I332E double mutant: M830 with Fc substitutions S239D and I332E made to increase ADCC (antibody)
heavy: B1 VH
VL: B1 VL
modifications: left off: a dimerising Fc or GST
notes: M830 with Fc substitutions S239D and I332E made to increase ADCC

B3: M863: TEM8 monoclonal antibody (hIgG1); VH SEQ ID NO:7, VL SEQ ID NO:8 (antibody, V domains shown)
VH: EVQLVETGAEVKKPGASVKVSCKASGYTFTGYYMHWVRQAPGQGLEWMGWINPTSGSTNYAQKFQGRVTMTRDTSISTAYMELSGLRSDDTAVYYCVRDPGSPKWLAFDPWGQGTLVTVSS
VL: B1 VL with M4L, A22T, Q27R, T28A
modifications: TEM863 mAb VH; TEM863 mAb VL
AUCI ([4]; 5 mg/kg): 1330.847 µg·h/mL | AUCT ([4]; 5 mg/kg): 1330.742 µg·h/mL | AUCT ([4]; 15 mg/kg): 10721.535 µg·h/mL | AUCI ([5]; 5 mg/kg): 1425.735 µg·h/mL | AUCT ([5]; 5 mg/kg): 1425.565 µg·h/mL | AUCI ([5]; 15 mg/kg): 7272.672 µg·h/mL | AUCT ([5]; 15 mg/kg): 7271.7 µg·h/mL
